This note sets out measurements from patent publication US20230265124A1 (ARIZONA BOARD OF REGENTS ON BEHALF OF THE UNIVERSITY OF …, published 2023).

Bridges are numbered along the chain shown (N, C = ends). Where no end group is shown, it is not given here. [ ]: non-standard residue; d: D form. glucose = glucose (covalently linked to the residue side chain); Dap = NC[C@H](N)C(=O)O; Aib = CC(C)(N)C(=O)O Some results are limits rather than exact numbers.

The IC50 is the point on the concentration scale where inhibition reaches its midpoint. Low readings indicate greater potency, high ones weaker potency. What is called Ki is the dissociation constant of the complex between target and ligand, obtained from inhibition or displacement. Lower therefore signals higher affinity.

The chains are these.
B1: 2LS118-4 (peptide)
peptide: DYIQN[Dap]PLS(glucose)-NH2
modifications: lactam 1-6
notes: Synthetic cyclic glycopeptide: Asp-Tyr-Ile-Gln-Asn-Dap-Pro-Leu-SerGlc-CONH2, cyclized AA1-AA6; also called compound 2LS118-4
B2: 2LS118-2 (peptide)
peptide: EYIQN[Dap]PLG-NH2
modifications: lactam 1-6; N-terminus assumed
SMILES: CC[C@H](C)[C@@H]1NC(=O)[C@H](Cc2ccc(O)cc2)NC(=O)[C@@H](N)CCC(=O)NC[C@@H](C(=O)N2CCC[C@H]2C(=O)N[C@@H](CC(C)C)C(=O)NCC(N)=O)NC(=O)[C@H](CC(N)=O)NC(=O)[C@H](CCC(N)=O)NC1=O
notes: Synthetic cyclic oxytocin analogue: Glu-Tyr-Ile-Gln-Asn-Dap-Pro-Leu-Gly-CONH2, cyclized AA1-AA6
B3: SSoxy4 (peptide)
peptide: EYIQN[Dap]PLS(glucose)-NH2
modifications: lactam 1-6
notes: Synthetic cyclic glycopeptide: Glu-Tyr-Ile-Gln-Asn-Dap-Pro-Leu-SerGlc-CONH2, cyclized AA1-AA6
B4: 2LS118-1 (peptide)
peptide: DYIQN[Dap]PLG-NH2
modifications: lactam 1-6; N-terminus assumed
SMILES: CC[C@H](C)[C@@H]1NC(=O)[C@H](Cc2ccc(O)cc2)NC(=O)[C@@H](N)CC(=O)NC[C@@H](C(=O)N2CCC[C@H]2C(=O)N[C@@H](CC(C)C)C(=O)NCC(N)=O)NC(=O)[C@H](CC(N)=O)NC(=O)[C@H](CCC(N)=O)NC1=O
notes: Synthetic cyclic oxytocin analogue: Asp-Tyr-Ile-Gln-Asn-Dap-Pro-Leu-Gly-CONH2, cyclized AA1-AA6; also called compound 2LS118-1
B5: SSoxy2 (peptide)
peptide: DYIQN[Dap]PLGS(lactose)-NH2
modifications: lactam 1-6
notes: Synthetic cyclic glycopeptide: Asp-Tyr-Ile-Gln-Asn-Dap-Pro-Leu-Gly-SerLact-CONH2, cyclized AA1-AA6
B6: 2LS118-6 (peptide)
peptide: DYIQN[Dap]PLGS(glucose)S(glucose)-NH2
modifications: lactam 1-6
notes: Synthetic cyclic glycopeptide: Asp-Tyr-Ile-Gln-Asn-Dap-Pro-Leu-Gly-(SerGlc)2-CONH2, cyclized AA1-AA6
B7: SSoxy1 (peptide)
peptide: DYIQN[Dap]PLS(lactose)-NH2
modifications: lactam 1-6
notes: Synthetic cyclic glycopeptide: Asp-Tyr-Ile-Gln-Asn-Dap-Pro-Leu-SerLact-CONH2, cyclized AA1-AA6
B8: SSoxy3 (peptide)
peptide: DYIQN[Dap]P[Aib]S(glucose)-NH2
modifications: lactam 1-6
notes: Synthetic cyclic glycopeptide: Asp-Tyr-Ile-Gln-Asn-Dap-Pro-Aib-SerGlc-CONH2, cyclized AA1-AA6
B9: SSoxy5 (peptide)
peptide: EYIQN[Dap]P[Aib]S(glucose)-NH2
modifications: lactam 1-6
notes: Synthetic cyclic glycopeptide: Glu-Tyr-Ile-Gln-Asn-Dap-Pro-Aib-SerGlc-CONH2, cyclized AA1-AA6
B10: 2LS118-3 (peptide)
peptide: [Dap]YIQNDPLG-NH2
modifications: lactam 1-6; N-terminus assumed
SMILES: CC[C@H](C)[C@@H]1NC(=O)[C@H](Cc2ccc(O)cc2)NC(=O)[C@@H](N)CNC(=O)C[C@@H](C(=O)N2CCC[C@H]2C(=O)N[C@@H](CC(C)C)C(=O)NCC(N)=O)NC(=O)[C@H](CC(N)=O)NC(=O)[C@H](CCC(N)=O)NC1=O
B11: SSoxy6 (peptide)
peptide: EYIQN[Dap]P[Aib]GS(glucose)-NH2
modifications: lactam 1-6
notes: Synthetic cyclic glycopeptide: Glu-Tyr-Ile-Gln-Asn-Dap-Pro-Aib-Gly-SerGlc-CONH2, cyclized AA1-AA6
B12: 2LS118-5 (peptide)
peptide: DYIQN[Dap]PLGS(glucose)-NH2
modifications: lactam 1-6
notes: Synthetic cyclic glycopeptide: Asp-Tyr-Ile-Gln-Asn-Dap-Pro-Leu-Gly-SerGlc-CONH2, cyclized AA1-AA6

The target of the assay is T1, human Mu Opioid Receptor (MOR) (human, UniProt P35372 1-400).
T1 construct: whole, on cells; also called MOR-CHO(PE)
T1 sequence (P35372 whole entry): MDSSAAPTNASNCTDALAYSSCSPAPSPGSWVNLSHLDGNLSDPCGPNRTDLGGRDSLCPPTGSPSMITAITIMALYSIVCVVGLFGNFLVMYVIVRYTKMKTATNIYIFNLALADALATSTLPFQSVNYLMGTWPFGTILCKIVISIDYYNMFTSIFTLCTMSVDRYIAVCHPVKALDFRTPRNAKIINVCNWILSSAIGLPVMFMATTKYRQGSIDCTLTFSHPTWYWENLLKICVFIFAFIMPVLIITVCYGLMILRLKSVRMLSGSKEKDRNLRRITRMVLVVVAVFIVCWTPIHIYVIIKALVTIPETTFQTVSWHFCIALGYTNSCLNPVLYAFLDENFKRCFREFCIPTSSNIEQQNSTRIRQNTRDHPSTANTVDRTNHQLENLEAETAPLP
The experiment in a line: competition binding against [3H]diprenorphine on MOR-CHO(PE) membranes. As for the experimental part:
Competition Binding at MOR-CHO(PE) Presence of [3H]Diprenorphine: The compounds were also tested for off-target binding to the human Mu Opioid Receptor (MOR), also expressed in CHO cells. Briefly, the experiment involved: Protein: MOR-CHO(PE) Passage: 16; previously frozen cell pellets used and prepared. Protein 15 ug/well used. Serial dilution of compounds and Naloxone(control) used. Total binding absence of compound used, 10uM Naloxone used for nonspecific binding. Each well contained membrane 15 ug/well protein and 2.48 nM Radioligand final conc. Incubated 1 hour in R/T; harvested on GF/B filter, dried O/N. Data are normalized to % Specific binding. MOR-CHO(PE) cell Kd:5.27±2.39 nM. Data are expressed as mean of a single experiment, performed in triplicate. Vehicle contained 0.1% DMSO and 0.1% BSA. (Radioligand:#23067 Lot:2548344 NET: 1121250UC). Table 1 below also summarizes overall MOR binding profile of cyclic oligopeptides of the invention compared to naloxone.
B1 gave an IC50 of over 2.5 µM and a Ki of over 2.5 µM.
B2: the IC50 is over 2.5 µM and the Ki is over 2.5 µM.
B3 showed a 50% inhibitory concentration (IC50) of over 2.5 µM and a Ki of over 2.5 µM.
In turn, B4 yielded an IC50 of over 2.5 µM and a Ki of over 2.5 µM.
The molecule B5 showed an IC50 of over 2.5 µM and a Ki of over 2.5 µM.
For the molecule B6, the IC50 is over 2.5 µM and the Ki is over 2.5 µM.
B7 yielded an IC50 of over 2.5 µM and a Ki of over 2.5 µM.
B8 gave an IC50 of over 2.5 µM and a Ki of over 2.5 µM.
The molecule B9 came in with an IC50 of over 2.5 µM and a Ki of over 2.5 µM.
Regarding B10, the IC50 is over 2.5 µM and the Ki was over 2.5 µM.
B11 showed an IC50 of over 2.5 µM and a Ki of over 2.5 µM.
The molecule B12 registered an IC50 of over 2.5 µM and a Ki of over 2.5 µM.
